{"source": "paper PMC517823"}
{"biological_target": "Ffh (UniProt P0AGD7)", "sequence (P0AGD7 whole entry, the tested form may be a part)": "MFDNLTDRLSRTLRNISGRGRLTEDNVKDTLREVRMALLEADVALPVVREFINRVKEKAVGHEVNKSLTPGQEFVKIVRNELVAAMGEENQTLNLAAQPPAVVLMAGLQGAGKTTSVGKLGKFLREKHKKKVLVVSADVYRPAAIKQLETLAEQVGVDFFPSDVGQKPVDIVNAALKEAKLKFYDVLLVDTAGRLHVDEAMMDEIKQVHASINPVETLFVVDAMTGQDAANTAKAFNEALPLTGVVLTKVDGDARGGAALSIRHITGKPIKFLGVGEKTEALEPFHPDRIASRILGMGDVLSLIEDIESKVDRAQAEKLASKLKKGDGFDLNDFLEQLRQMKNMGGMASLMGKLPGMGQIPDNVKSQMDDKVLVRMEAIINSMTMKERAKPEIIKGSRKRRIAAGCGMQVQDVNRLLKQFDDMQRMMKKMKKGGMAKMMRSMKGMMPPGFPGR", "experiment": "inhibition assay", "conditions": "not given", "units": {"Ki": "nM"}}
{"substance": "wild-type FtsY(47-497) (from UniProt P10121) D330(135)A", "Ki": 2400}
{"substance": "wild-type FtsY(47-497) (from UniProt P10121) T307(112)A", "Ki": 7100}
{"substance": "wild-type FtsY(47-497) (from UniProt P10121) D479(278)A", "Ki": 2800}
{"substance": "wild-type FtsY(47-497) (from UniProt P10121) R386(191)A", "Ki": 120}
{"substance": "wild-type FtsY(47-497) (from UniProt P10121) N302(107)W", "Ki": 140}
{"substance": "wild-type FtsY(47-497) (from UniProt P10121) G454(253)W", "Ki": 4200}
{"substance": "wild-type FtsY(47-497) (from UniProt P10121) R333(138)A", "Ki": 240}
{"substance": "wild-type FtsY(47-497) (from UniProt P10121) K306(111)A", "Ki": 3500}
{"substance": "wild-type FtsY(47-497) (from UniProt P10121) A336(141)W", "Ki": 160}
{"substance": "wild-type FtsY(47-497) (from UniProt P10121) K312(117)A", "Ki": 2400}
{"substance": "wild-type FtsY(47-497) (from UniProt P10121) N302(107)A", "Ki": 110}
{"substance": "wild-type FtsY(47-497) (from UniProt P10121) K453(252)E", "Ki": 3100}
{"substance": "wild-type FtsY(47-497) (from UniProt P10121) Q339(144)A", "Ki": 3900}
{"substance": "wild-type FtsY(47-497) (from UniProt P10121) T307(112)W", "Ki": 9900}
{"substance": "wild-type FtsY(47-497) (from UniProt P10121) K447(246)A", "Ki": 11000}
{"substance": "wild-type FtsY(47-497) (from UniProt P10121) D382(187)A", "Ki": 27000}
{"biological_target": "FtsY (Escherichia coli) (UniProt P10121)", "sequence (P10121 2-497)": "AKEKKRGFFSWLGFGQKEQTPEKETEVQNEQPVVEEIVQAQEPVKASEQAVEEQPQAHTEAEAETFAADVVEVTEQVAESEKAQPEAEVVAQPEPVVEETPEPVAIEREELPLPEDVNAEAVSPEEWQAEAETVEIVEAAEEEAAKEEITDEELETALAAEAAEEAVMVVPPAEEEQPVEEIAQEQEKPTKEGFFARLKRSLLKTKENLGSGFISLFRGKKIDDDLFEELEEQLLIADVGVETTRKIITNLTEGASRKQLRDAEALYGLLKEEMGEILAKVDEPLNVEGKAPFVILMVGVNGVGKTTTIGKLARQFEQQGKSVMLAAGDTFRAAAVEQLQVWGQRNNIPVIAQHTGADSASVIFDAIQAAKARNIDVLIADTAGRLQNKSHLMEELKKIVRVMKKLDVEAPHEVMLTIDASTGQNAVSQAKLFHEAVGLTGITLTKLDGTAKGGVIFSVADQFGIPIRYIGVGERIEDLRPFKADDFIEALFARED", "experiment": "not given", "conditions": "cited from earlier work", "units": {"Kd": "nM"}}
{"substance": "Ffh (from UniProt P0AGD7)", "Kd": 16}
{"biological_target": "Ffh (UniProt P0AGD7)", "experiment": "other; GTP; inhibition assay", "conditions": "domain or fragment", "units": {"Ki": "nM"}}
{"substance": "FtsY Arg386(191) mutant (from UniProt P10121 47-497)", "Ki": 120}
